PMC3659600

Substrate: O=[N+]([O-])c1ccc(O[C@@H]2O[C@H](CO)[C@@H](O)[C@H](O)[C@H]2O)cc1
Assay: purified protein
Conditions: pH 6.0 sodium phosphate 50 mM, 37 °C, 0.1-5 mM substrate

B1: BglF3 (Flavobacterium johnsoniae UW101) (protein)
chain: KNKMIYLSAALVFAFFTSCKNETQTSASNSSQTEEYVGKEISTDHDAEIDKLISQMTLEEKIGMLHGNSMFANAGVKRLGIPELKMADGPLGVREEISRDNWAPAGWTNDFATYYPAGGALAATWNAEMAHTFGTSLGEELRARDKDMLLSPAINMVRTPLGGRTYEYMSEDPFLNKKIAVPLVVGLQEKDVMACVKHYAANNQETNRDFVDVQIDERTLREIYLPAFEATVKEAKAYSIMGAYNKFRGEYLCENDYMLNKILRDEWGFKGVVVSDWAAVHSTAKSLKNGLDIEMGTPKPFNEFFLADKLIAAVKSGEVSEKEIDLHVKRILRVLFQVKAMGGGERAKGSIATEAHYQDAYKIAAEAIILLKNENNALPLKLDGVKSIAVIGNNATKKNALGGFGAGVKTKREVTPLEGLKNRLPSSVKINYAEGYLEKYEEKNKGNLGNITSTGPVTIDKLDPAKVQEAVEAAKKSDVAIIFAGSNRDYETEASDRRDLHLPFGQEELIKKVIEANPKTIVVMIAGAPFDLNEVSQKSSALVWSWFNGSEGGNALADVILGKVNPSGKLPWTMPKQLKDSPAHATNSFPGDKAVNYAEGILIGYRWFDTKNVAPLYPFGYGLSYTTFALDNAKTDKDSYAQNDVIEVTVDVKNTGKVDGKEVVQLYTSKSDSKITRAAQELKGFKKADVKAGGSEKITIKVPVKELAYYDVAAKKWTVEPGKYTIKLGTSSRDIKKEINFTIK
  Km: 910 ± 20 µM
